According to US20190153065A1 (ALBERT EINSTEIN COLLEGE OF MEDICINE, published 2019):

What was measured:
[1] = target: T1, wild-type mouse PD-L1 mCherry (full-length mouse PD-L1 with C-terminal mCherry, on HEK 293 cells) (mouse, UniProt Q9EP73 19-290); assay: FACS competition: mPD-1 mIgG2a titrated (0.01-250 nM dimer) against 5 nM mB7-1 hIgG1 (competitor) on HEK 293 cells expressing mPD-L1 mCherry; one-site competition fit, three experiments
T1 construct: whole, on cells; also called wild type PD-L1; mPD-L1 mCherry; not shown: C-terminal mCherry (Clontech N1 mCherry vector)
From the text: A mB7-1 hIgG1 Fc fusion construct was cloned which used the same erythropoietin (EPO) leader, mB7-1 ecto domain boundaries and linker sequence as the original mIgG2a construct described above. This construct was transiently expressed in HEK 293 cells and purified as described above for the other Fc fusion proteins used. For the completion experiment, HEK 293 suspension cells were transiently transfected with wild-type mPD-L1 mCherry. Three days post transfection transfected cells were counted and diluted to 1×10⁶ cells/mL. B7-1 hIgG1 fusion protein was added to 100,000 transfected cells at a final concentration of 5 nM dimer, in either the absence or presence of increasing concentrations of PD-1 mIgG2a protein (0.01-250 nM dimer). Parallel experiments were carried out in which purified mIgG2a isotype control was titrated at equivalent molar concentrations. Protein binding was carried out at 22° C. shaking at 900 rpm on a 96-well plate shaker for 1 hour. […] Cells were subsequently washed two more times with 1×PBS with 0.2% BSA. […] Competition data was normalized to 5 nM B7-1 binding in the absence of mPD-1 and plotted as a function of log [mPD-1]. Average data from three independent experiments was fit using a one-site competition model equation Y=min+(max−min)/(1+10^{x-log EC50}).
A) Cartoon depiction of the competition assay. […]

[2] = target: T2, PD-L1 mutant A121D (mouse PD-L1-mCherry fusion) (mouse, UniProt Q9EP73 19-290); assay: microbead FACS binding assay: protein A microbeads loaded with Fc fusion, HEK 293 cells displaying the PD-L1-mCherry mutant
T2 construct: whole, on cells; not shown: C-terminal mCherry (Clontech N1 mCherry vector)
Method: (§1) PD-L1 mCherry mutant constructs were transiently transfected into HEK 293S cells and subsequently challenged with protein A microbeads (Milltenyi) pre-saturated with a 4:1 mixture of PD-1 Fc-fusion and FITC-Fc protein. A total Fc protein to bead ratio of 5 ug/10 uL microbeads was utilized on the basis of a previous report from Genentech (16). The FITC-Fc served to make the otherwise non-fluorescent microbeads show green fluorescence. For each titration experiment, 500 μL of protein A microbeads were loaded with a mixture of 10 μg fluorescein isothiocyanate (FITC)-Fc and 40 μg of either PD-1-Fc or B7-1-Fc protein in a total volume of 5 mL 1× phosphate buffered saline (PBS). The beads were incubated overnight (˜16 hours) at 4° C. Loaded beads were stored for up to two weeks prior to use. Initial experiments determined that 75 μL of the loaded beads were sufficient to saturate 150,000 cells transfected with wild type PD-L1, (transfection efficiency being consistently 60-70%). For titration experiments, sets of wild type and mutant PD-L1 constructs were transfected in 24-well tissue culture plates containing 1 mL of suspension HEK-293 cells. Three days post transfection cells were counted, diluted to 1×10⁶ cell/mL with 1×PBS with 2% BSA. 150K cells (150 μL) were transferred to Eppendorf tubes, and 75 μL of loaded microbeads added along with an additional 100 μL 1×PBS with 2% bovine serum albumin (BSA). Reactions were mixed end over end for 1 hour at 4° C., 4′,6-diamidino-2-phenylindole (DAPI) was added and samples were immediately analyzed by flow cytometry on a BD Aria III cytometer. Data were analyzed by gating first for live cells (DAPI negative) then for mCherry positive cells (PD-L1 expression). The percentage of mCherry positive cells that were FITC positive (microbeads bound) was used as “percent bound”. For each experiment, the percent bound was normalized to wild type binding.
(§2) These cells were probed by flow cytometry for their ability to bind either FITC-loaded microbeads decorated with wild type PD-1 Ig-fusion or wild type B7-1 Ig-fusion proteins (FIG. 7B).

[3] = target: T3, PD-L1 mutant I116R (mouse PD-L1-mCherry fusion) (mouse, UniProt Q9EP73 19-290); assay: as above
T3 construct: whole, on cells; not shown: C-terminal mCherry (Clontech N1 mCherry vector)
Method: as §1, §2

[4] = target: T4, PD-L1 mutant A121R (mouse PD-L1-mCherry fusion) (mouse, UniProt Q9EP73 19-290); assay: as above
T4 construct: whole, on cells; not shown: C-terminal mCherry (Clontech N1 mCherry vector)
Method: as §1, §2

[5] = target: T5, PD-L1 mutant L53R (mouse PD-L1-mCherry fusion) (mouse, UniProt Q9EP73 19-290); assay: as above
T5 construct: whole, on cells; not shown: C-terminal mCherry (Clontech N1 mCherry vector)
Method: as §1, §2

[6] = target: T6, PD-L1 mutant G120R (mouse PD-L1-mCherry fusion) (mouse, UniProt Q9EP73 19-290); assay: as above
T6 construct: whole, on cells; not shown: C-terminal mCherry (Clontech N1 mCherry vector)
Method: as §1, §2

[7] = target: T7, PD-L1 mutant I115D (mouse PD-L1-mCherry fusion) (mouse, UniProt Q9EP73 19-290); assay: as above
T7 construct: whole, on cells; not shown: C-terminal mCherry (Clontech N1 mCherry vector)
Method: as §1, §2

[8] = target: T8, PD-L1 mutant G119R (mouse PD-L1-mCherry fusion) (mouse, UniProt Q9EP73 19-290); assay: as above
T8 construct: whole, on cells; not shown: C-terminal mCherry (Clontech N1 mCherry vector)
Method: as §1, §2

[9] = target: T9, PD-L1 mutant G120A (mouse PD-L1-mCherry fusion) (mouse, UniProt Q9EP73 19-290); assay: as above
T9 construct: whole, on cells; not shown: C-terminal mCherry (Clontech N1 mCherry vector)
Method: as §1, §2

[10] = target: T10, PD-L1 mutant D122R (mouse PD-L1-mCherry fusion) (mouse, UniProt Q9EP73 19-290); assay: as above
T10 construct: whole, on cells; not shown: C-terminal mCherry (Clontech N1 mCherry vector)
Method: as §1, §2

[11] = target: T11, PD-L1 mutant L53D (mouse PD-L1-mCherry fusion) (mouse, UniProt Q9EP73 19-290); assay: as above
T11 construct: whole, on cells; not shown: C-terminal mCherry (Clontech N1 mCherry vector)
Method: as §1, §2

[12] = target: T1, wild-type mouse PD-L1 mCherry …; assay: cell microarray challenged with Fc fusion protein
[13] = target: T12, PD-L1 mutant R125A (mouse PD-L1-mCherry fusion) (mouse, UniProt Q9EP73 19-290); assay: microbead FACS binding assay: protein A microbeads loaded with Fc fusion, HEK 293 cells displaying the PD-L1-mCherry mutant
T12 construct: whole, on cells; not shown: C-terminal mCherry (Clontech N1 mCherry vector)
Method: as §1, §2

[14] = target: T13, PD-L1 mutant D122A (mouse PD-L1-mCherry fusion) (mouse, UniProt Q9EP73 19-290); assay: as above
T13 construct: whole, on cells; not shown: C-terminal mCherry (Clontech N1 mCherry vector)
Method: as §1, §2

[15] = target: T14, PD-L1 mutant R125D (mouse PD-L1-mCherry fusion) (mouse, UniProt Q9EP73 19-290); assay: as above
T14 construct: whole, on cells; not shown: C-terminal mCherry (Clontech N1 mCherry vector)
Method: as §1, §2

[16] = target: T15, PD-L1 mutant Y123R (mouse PD-L1-mCherry fusion) (mouse, UniProt Q9EP73 19-290); assay: as above
T15 construct: whole, on cells; not shown: C-terminal mCherry (Clontech N1 mCherry vector)
Method: as §1, §2

[17] = target: T16, PD-L1 mutant K124A (mouse PD-L1-mCherry fusion) (mouse, UniProt Q9EP73 19-290); assay: as above
T16 construct: whole, on cells; not shown: C-terminal mCherry (Clontech N1 mCherry vector)
Method: as §1, §2

[18] = target: T17, PD-L1 mutant K124D (mouse PD-L1-mCherry fusion) (mouse, UniProt Q9EP73 19-290); assay: as above
T17 construct: whole, on cells; not shown: C-terminal mCherry (Clontech N1 mCherry vector)
Method: as §1, §2

[19] = target: T18, PD-L1 mutant Y123A (mouse PD-L1-mCherry fusion) (mouse, UniProt Q9EP73 19-290); assay: as above
T18 construct: whole, on cells; not shown: C-terminal mCherry (Clontech N1 mCherry vector)
Method: as §1, §2

T6 sequence (Q9EP73 19-290 G120R): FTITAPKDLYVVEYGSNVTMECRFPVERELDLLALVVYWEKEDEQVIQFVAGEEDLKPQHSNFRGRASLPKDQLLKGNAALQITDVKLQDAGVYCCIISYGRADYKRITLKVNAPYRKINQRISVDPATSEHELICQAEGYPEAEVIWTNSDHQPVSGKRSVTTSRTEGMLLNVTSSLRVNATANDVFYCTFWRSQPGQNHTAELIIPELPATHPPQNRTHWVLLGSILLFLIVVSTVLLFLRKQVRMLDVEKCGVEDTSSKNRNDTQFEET
T7 sequence (Q9EP73 19-290 I115D): as the sequence (Q9EP73 19-290 G120R) above, with I97D, R102G counted along it
T1 sequence (Q9EP73 19-290): as the sequence (Q9EP73 19-290 G120R) above, with R102G counted along it
T9 sequence (Q9EP73 19-290 G120A): as the sequence (Q9EP73 19-290 G120R) above, with R102A counted along it
T4 sequence (Q9EP73 19-290 A121R): as the sequence (Q9EP73 19-290 G120R) above, with R102G, A103R counted along it
T11 sequence (Q9EP73 19-290 L53D): as the sequence (Q9EP73 19-290 G120R) above, with L35D, R102G counted along it
T10 sequence (Q9EP73 19-290 D122R): as the sequence (Q9EP73 19-290 G120R) above, with R102G, D104R counted along it
T5 sequence (Q9EP73 19-290 L53R): as the sequence (Q9EP73 19-290 G120R) above, with L35R, R102G counted along it
T8 sequence (Q9EP73 19-290 G119R): as the sequence (Q9EP73 19-290 G120R) above, with G101R, R102G counted along it
T2 sequence (Q9EP73 19-290 A121D): as the sequence (Q9EP73 19-290 G120R) above, with R102G, A103D counted along it
T3 sequence (Q9EP73 19-290 I116R): as the sequence (Q9EP73 19-290 G120R) above, with I98R, R102G counted along it
T14 sequence (Q9EP73 19-290 R125D): as the sequence (Q9EP73 19-290 G120R) above, with R102G, R107D counted along it
T18 sequence (Q9EP73 19-290 Y123A): as the sequence (Q9EP73 19-290 G120R) above, with R102G, Y105A counted along it
T15 sequence (Q9EP73 19-290 Y123R): as the sequence (Q9EP73 19-290 G120R) above, with R102G, Y105R counted along it
T12 sequence (Q9EP73 19-290 R125A): as the sequence (Q9EP73 19-290 G120R) above, with R102G, R107A counted along it
T13 sequence (Q9EP73 19-290 D122A): as the sequence (Q9EP73 19-290 G120R) above, with R102G, D104A counted along it
T17 sequence (Q9EP73 19-290 K124D): as the sequence (Q9EP73 19-290 G120R) above, with R102G, K106D counted along it
T16 sequence (Q9EP73 19-290 K124A): as the sequence (Q9EP73 19-290 G120R) above, with R102G, K106A counted along it

B1: wild-type mPD-1 Fc (residues L25-Q167, mIgG2a-10×His) (Fc fusion, mouse, not shown: a dimerising Fc or GST)
chain (part 1 of 2): LEVPNGPWRSLTFYPAWLTVSEGANATFTCSLSNWSEDLMLNWNRLSPSNQTEKQAAFCNGLSQPVQDARFQIIQLPNRHDFHMNILDTRRNDSGIYLCGAISLHPKAKIEESPGAELVVTERILETSTRYPSPSPKPEGRFQ
chain (part 2 of 2): HHHHHHHHHH
notes: range 25-167; In the microbead assay it was loaded on protein A microbeads; also called PD-1 Fc-fusion; PD-1 Ig-fusion
How did the EC50 [1] turn out when B1 was run?
The EC50 was 8.3 nM.

Does B1 bind [2]?
Result: no binding

Does B1 bind [3]?
Result: no binding

Does B1 bind [4]?
Result: no binding

Does B1 bind [5]?
Result: no binding

Does B1 bind [6]?
Result: no binding

Does B1 bind [7]?
Result: no binding

Does B1 bind [8]?
Result: no binding

Does B1 bind [9]?
Result: no binding

Does B1 bind [10]?
Result: no binding

Does B1 bind [11]?
Result: no binding

B2: wild-type mB7-1 Fc (residues D37-K245, mIgG2a-10×His) (Fc fusion)
chain: DVDEQLSKSVKDKVLLPCRYNSPHEDESEDRIYWQKHDKVVLSVIAGKLKVWPEYKNRTLYDNTTYSLIILGLVLSDRGTYSCVVQKKERGTYEVKHLALVKLSIKADFSTPNITESGNPSADTKRITCFASGGFPKPRFSWLENGRELPGINTTISQDPESELYTISSQLDFNTTRNHTIKCLIKYGDAHVSEDFTWEKPPEDPPDSK
modifications: C-terminal mIgG2a Fc-10×His (dimerising carrier), not in the letters
notes: In the microbead assay it was loaded on protein A microbeads; also called B7-1 Fc-fusion; B7-1 Ig-fusion; not shown: the linker between ectodomain and Fc, the mouse IgG2a Fc and the 10xHis tag behind it
Does B2 bind [12]?
Result: binds

Does B2 bind [13]?
Result: binds

Does B2 bind [2]?
Result: no binding

Does B2 bind [3]?
Result: no binding

Does B2 bind [14]?
Result: binds

Does B2 bind [4]?
Result: no binding

Does B2 bind [5]?
Result: no binding

Does B2 bind [15]?
Result: binds

Does B2 bind [16]?
Result: binds

Does B2 bind [6]?
Result: no binding

Does B2 bind [17]?
Result: binds

Does B2 bind [18]?
Result: binds

Does B2 bind [7]?
Result: no binding

Does B2 bind [8]?
Result: no binding

Does B2 bind [9]?
Result: no binding

Does B2 bind [19]?
Result: binds

Does B2 bind [10]?
Result: no binding

Does B2 bind [11]?
Result: no binding
